Experimental data reported in article PMC12732657.

Assays:
[1] = target: Bovine pancreatic β-trypsin (bovine)
[2] = target: Bovine pancreatic β-trypsin (bovine); experiment: ITC; CVTI (200 µM) injected in 2.02 µL steps into 170 µL cell with bovine trypsin (20 µM); 50 mM Tris pH 7.8, 150 mM NaCl; Nano ITC

Vmax of caseinolysis by trypsin (5 µM) in the presence of CVTI (15 µM); 20.23 µM/min without CVTI [1]: 16.7 µM/min | Ka [2]: 513000 M⁻¹ | Kd [2]: 1950 nM | dH [2]: 76.8 kcal/mol | stoichiometry N [2]: 1.1
Substance: Cleome viscosa trypsin inhibitor (natural protein)
